In a protein production outcome set (Wang et al. 2014):

Experiment: label from the status in PepcDB records

Sequence | protein production
MWGQMRNRNWRSRALCTVVATSLLALGGPLLSATAAGGPNIAVGDATAASSSHGEYGAANITDGNQGTYWQSGGGSLPQWVQTDLGATERIDEVVLRLPAGWESRDQTLSVQGSADGTGFSTLKTSATYAFDPGSGNTVTIAFPATQTRFVRVDITANTGWQAAQLSELEVHAAGESSVNLAAGRRLTASSSTGAYTPGNGNDGNKATYWESANNALPQWLQADLGSARRVNRVVLRLPDGWPARSQTLKIQASDNGSDFTDLTAAKAYTFDAAGGQSATVTFDAATARYVRVLVTANTGQPAAQISELEVYGPETGDTQAPTTPANLAFTEPATGQIRLTWNESSDDTAVTGYDVYANGDLLTSVAGDVTTYTDTRPAGTTVTYHVRAKDAAGNQSGDSNSVTRRADTGDTQAPTAPSNLALTEPVPGQVKLTWTASTDDRGVTGYDVYADNKLRKSVAGNVTTYTDTQPASANVTYFVRAKDAAGNESGDSNSVFRGGTMDGSNLAVGKPITASSHIHTYVAENANDNSTSTYWEGAAGGYPNTLTLKLGANADVDSVVLKLNPDAGWSRRTQHIEVLGRAQDASGLTSLVAARDYVFDPASGGNSVTIPVGERAADVQLKFTSNTGATAGQVAEFQVIGTPAPNPDLEVTGLTASPGSPVESDEITVSATVRNSGAADAPAGKVAVRLGDTKVATADVPALEAGAQRTVSASLGAREAGSYELSAVADEANEIIEQNETNNTYTRPDPLVVKPVQSSDLVAAAVTTSPSSPAAGDDVTFRVALRNQGTQDSAGGGHPVTLALVDSKGDTVKTLTGTHSGVIAAGSTAPAVSLGTWKAANGSYSLKVTVADDANELPVKRENNTSTQPLFVGRGANMPYDMYEAEDGTVGGGATVVGPNRTIGDIAGEASGRKAVHLDRTGEYVEFTTKADTNTLVTRFSIPDAPGGGGIDATLDVYVDGVMKKALPLTSKYAWLYGAEASPGNSPGAGAPRHIYDEAHIMLGETVPAGSTIRLQKDAANTSDYAIDFVNLEQVSATANPDPAAYAVPAGFTHQDVQNALDKVRMDTSGKLVGVYLPPGDYQTSSKFQVYGKAVKVVGAGPWFTKFHAPTTQDNTDIGFRAEASAKGSTFANFAYFGNYTSRIDGPGKVFDFSNTSDIVIDNIWNEHMVCLYWGANTDRMTIRNSRIRNMFADGINMTNGSTDNLVSNNDARATGDDSFALFSAIDAGGADMKNNLYENLTTTLTWRAAGLAVYGGYNNTFRNIHIADTLVYSGITISSLDFGYPMNGFGTDPTTFENVSIVRAGGHFWGGQTFPGIWVFSASKVFQGIRVNNVDIVDPTYSGIMFQTNYVGGQPQFPIKDTVFTDVSVTGAHKSGDEFDAKSGFGLWANEMPESGQGPAVGEVTFNGLALGDNAVDIRNTTSTFKIIRNP | failed
MWGYVHLISWVAIVVLTVTALLIYSKSVKGFTMLQMINRVFYILVILSGIMMVQYSVKESWILAIFKILMGIIVIGVVEMLLSYRKQQKPTGMFLMIFIIVVVITVSLGFYLSGGYPLFN | failed
MWIQVRTIDGSKTCTIEDVSRKATIEELRERVWALFDVRPECQRLFYRGKQLENGYTLFDYDVGLNDIIQLLVRPD | not failed
MWKDLTEPLPEACAEGLEIRVVKSPEELADYAAVLSANWNPPAETVQRFYTEAAEYALRKNSPALYLVGYAGNRAVCSAEAFIHASVVGIYNISTLEHKRRRGYGGAITLATLHTARNAGCDTAVLQASEDGEPVYRKLGFTDCGRFTEYSL | failed
MWKRASRRAGLRRRAVAQPVPPAELGGTAFSSVLEQLELECRAMVSYALKQGLAMSPDLPGRLAELRVMPGASLHGESGARELAGLHRQLVRAIQPATPQAVVLIERERLRGGWLRWLGPIPLIRTLTLTSVGCLASVVGLAMSSLVNERNITLGFLDSSGSTLGWNVMFILACAGLGAAFSALFQAHRYVADATYDPRFDSSYAARMILGLIAG | failed
MWKRGKISTQLDDDEFRAGMRKAQVIDVREKKEFDAGHILGARNIPYSQMKNRTQELRSDLPVYLYDQGRTFSGRAAMLLSKKGFTQLYILKNGYQRWTGKTKKTKYLEHHHHHH | not failed
MWMKDPVARPLSPTRLQPALPPEAQSVPELEEVARVLAEIPRPLKRRGSMEQAPAVALPPTHKKQYQQIISRLFHRHGGPGPGGRSQSCPPSLRDLRPGQGPLLLPHQLPFHRPAPSQSSPPEQPQSMEMRSVLRKAGSPRKARRARLNPLVLLLDAALTGELEVVQQAVKEMNDPSQPNEEGITALHNAICGANYSIVDFLITAGANVNSPDSHGWTPLHCAASCNDTVICMALVQHGAAIFATTLSDGATAFEKCDPYREGYADCATYLADVEQSMGLMNSGAVYALWDYSAEFGDELSFREGESVTVLRRDGPEETDWWWAALHGQEGYVPRNYFGLFPRVKPQRSKV | not failed
MWNIATAAATLLVAFAATRAYAADIGYLAPPGVAANEFPSPQRPVARIVSPRRASEEHRDALNEAGQIARVLELKPGMTVGDIGAGSGYHTVRLSYLVAPAGSVVAQDVTRDYLIELARRTKLLKLTNVQFALGEPHDPRLPASSLDAAILVHMYHEIAQPYAFLYNLAPALKQGARVGIVDLELPTSKHGTPIELLRCELTAVGYREVATYKLEGDGGYLAVFSPPEVAGRKSPRDIVACRDPAGTR | failed
MWNKLNKSMMFCQMMFGLSFYGVMVILTRFFLEELNYSEADTMMVVGAFSSIGPLFAIAGGFIADKFLGAYRSLTISYFGFATGYALLVLGSYTTNVPMALCGIALASYGRGLMSPSYPSLYKRTFDTQEHFENCYPVNYSVNNVGALLGQYLFPMFVLVLGFHGSFLLSCVLALLAFATLVIFRKPLLTVGAHIDQKPVSMQNWISFLITSVAMIALVFFMFSNMDIGQNIVYGIGLAAIGYFVILMLKSKKSDALKMGTILIMTALTTAFFVYYGQMMTSMTMVTINTMRGDLFDLIPIAPEASMAMNPLWCIVAGPVIAMIFSALEKRDIHFSTATKIGFAFILTAIAFGILTMAVMGVGEDAIIRPEVFLLIHFFQAFAEVIVGSLVVAFILSVAPKHIEGFSVSLFSVAMALSGIIGAVFSTSIAQEKGHVITQEFVQTVYGSYFQLLTVLAVVMVAIAFIASFIIRKMLESSKQAEEVELKEQKA | failed
MWNLETDRVIKEIEKSNGKNIVFHAPEGLKLAVEKEIEKINDYFNSTKNLIMWGAPCYGACDLCDHELKYNNIDLIIHYGHEELPYAKPDIPTIFIHCYYIYDEIEQNNILNKIDEYLQNNPNTIITTTIQFKELLKKYNPNIILGCRANISNKPKSELEQGTEKETENSKILYIGTGRFHPLMLCYKFKKSVNLFNPTSKEFSAISEEEVNKFIKKRIGAISKLLINPPKKIGVVLSTKKGQNRINVYNKIINLLKDNNIEYMPIILNNASPDNLFYDVSAYIICACPRIVLDDYLNYNKTLLTPKEFEMYIKKDFEYVFDEILFDDFEP | failed
MWPLISNELYKIIKKKKFWITFIVFFALFLAYSIVQYSSEKKYYEPKQRIAMDKLEIKTEKKQLNSPGINAEQKKKIKQYIKQDEKDIKDKKKEDASKDLDWHLRLNKELIQKKYEYIKDKGKGKNEDTEDASISVMKDEYYRDNNLNPYDKTGDLAMDSFLSSKAFMQILVVFIIIAVATSDIVSSEYSPATIKMLLAKPASRAKILFSKFIAILVGNIFIIGIPQVITYLILSFMNGFPNLSQPIAVGRMYQYDSSVILSNHNVGVSPILGSSYLITEGKYLLYLALLDLLFILGCVSICFLISVLIKNSAITIGINVGLGVVMSIIGLMTLEGAIPKALSAITPFLIMTYSSTDVLLMGDMAKRANNPGITVGMGIVVFIVYTVVCMGISTFVFSKKDMLA | failed
MWPSCMARFPSDGQPGYRFVPSPGSGAGEEEMRPLVSVVCACFNISKYLDEAIASIYAQGYPNLELIVVDDGSTDDTYERLAMLRERHGFQLYRQANRGVSDALNHGLRHARGEFVMTPDLDDILLPGALDTRVDYLLAHPEVGCVGGFNICIDSAGNEVARDGFSEGCVERWGFDAALAETLVVMPLTALYRMEAMKRADFFDPSIRVQDFQITLRIAAQGYEIHRLPAYMGRYRRHGSGLSGRYKLNYEADMQAIEPYRAHPNYRRARQLILNKALKKAVVQDGRYAWQLFRSVPLRAWDRVTLKRFWRFLRYLPVLGLKGGTGVEGR | failed
MWSSREIEDLGLTFAIAIDKGKETNTEKELKEEGGSYPKKDNITLTYQFVNEKAAGAGTSGGGGSGQGAQKAYINISETGDSLQQIGSEVALRRDREVFSPHLKVVVMSEDVLHTFPIDEMLDQFFRDNEIRLSCLVLSAKGEARDALQLKENGEIPAFRLIGLGENEHKVSRILPPMTLAKLIGKLHSGSSFLLQNVVAANGAVKYSGAAVINGKSKKMIGTLNEYETEGITWIRGEGKGGVVKSHDKKSQQTLAYDINKIKSRIQPIVKGKDISFHVDIESEGDLVENWNTKEALDTQFIDRLETTIENEVKKIVGQVLKKIQHDYKADVAGFDESFRLTYPHLWKRVKNNWDDTFSKADITYSVNVTITHFGTVKTQLEHHHHHH | not failed
MWSWDVECDTCAICRVQVMDACLRCQAENKQEDCVVVWGECNHSFHNCCMSLWVKQNNRCPLCQQDWVVQRIGK | not failed
MWTTRLVRSGLAALCAAVLVSSGCARFNDAQSQPFTTEPELRPQPSSTPPPPPPLPPVPFPKECPAPGVMQGCLESTSGLIMGIDSKTALVAERITGAVEEISISAEPKVKTVIPVDPAGDGGLMDIVLSPTYSQDRLMYAYISTPTDNRVVRVADGDIPKDILTGIPKGAAGNTGALIFTSPTTLVVMTGDAGDPALAADPQSLAGKVLRIEQPTTIDQTPPTTALSGIGSGGGLCIDPVDGSLYVADRTPTADRLQRITKNSEVSTVWTWPDKPGVAGCAAMDGTVLVNLINTKLTVAVRLAPSTGAVTGEPDVVRKDTHAHAWALRMSPDGNVWGATVNKTAGDAEKLDDVVFPLFPQGGGFPRNNDDKT | failed
MWTVLIINLLIAIVLTYFGLKERNENFSWFTASGAFIVFGLILLISTIPVFNDFNESSLLMFIGGILSILGIITLIIGLVTRAVKIVSLRDVAIAMEIAAVCVIYLIHNLDLSFINLFVPELSVIIGFLLFVFSRKKN | failed
MWWPGTVIGVGAGFAVASIPGALLGALLGQAIDRRLRLQGWEDMRERLGGRPALRDDELLFVMLGRLAKCDGRVAEQHIQQARQEMVRLDLAEAARLRAINAFNRGKAGKDRLGGHLRRISQQPHAAEGTLRACWRMVWADGKMGNKERELLLDWGQKLGMSRRQVQAMSLEYEPRKATGAESVPMTYAAALRLLAVDADTDTDKVKQAYRRLVSRHHPDKLAGTGASEAQVREATARTRELHQAYAMIRKRRGL | failed
MYADYPYYADHYGGDIPEREYPSAERRAEAYIRKLTYVRGNIFAVENTAVKDAVCAVADVYYSCKKKQEAGTVKSESNDGYSVSYAVEQADGQTMEELIRKKAYEAASTYLLPTGWLSRKVGCCHADECDDYNL | failed
MYALISLEEDPSLLRYGYLSQDNVGDVRREVSKLCGELRPHALALVTSFGIPDSFLSPIAFNWVEANTWSSV | failed
MYAVPILNVYDFEVKKDKETSYKSATEDYVNKTMGVEQGVLGLFAATDERDKTTSYIVEIYNDYLAFSNHTKNQASKDFKAVIPQIAEGNLNSAEIDVQIAKDKKIEQNDNTFAVYTVIDVKPENDKEFAEIIKNIVETTFNEEGTLLVYLGTDRRNFNKWCLFEVYKDIDSYLNHRSAKYFKDYITQTKDMIAGKKRAELQVLKIENKGGLDYKKLY | not failed
